The target of this assay is 灭活非洲猪瘟病毒抗原 (非洲猪瘟全病毒). Kind of assay: ELISA with whole ASFV, as in Fig. 6 (scFv coated, inactivated ASFV captured).

B1: 抗非洲猪瘟病毒的ScFv抗体VH-VLλ11 (scFv)
scFv: MEVKLVESGGGLVQPGGSLRLSCVGSEYEFRGSLIHWVRQAPGKGLEWLATICTTDPITEYADSVKGRFTISRDSSQNTAYLQMDSLRGEDTARYYCGVAFSYGGGCHRMDLRGQGVEVVVGGGGSGGMSQTVIQEPAMSVSPGGTVTLTCAFSSGSESTRKYPIRFQQTPGQPPRLLIYHTNSRPTGVPSRFSGAISGNKAALTITGAQAEDEADYFCSLYIRTYNVPFGGGTHLTVL
Take B1: the OD450nm was 1.12 OD450nm.

Values taken from patent CN112592401A.
